{"source": "the DeepSol protein solubility set", "data": [{"assay": "soluble on expression in E. coli; label from the status in PepcDB or PDB records", "values": [{"sequence": "MSLVSSTLKSVSRCRHFRIDGFWLQTVMSDIFSHTALSNLAEFSVSELSGSIKRTVETAFEQVRVRGEISGYRGPHSSGHAYFSLKDDRARIDAVIWKGTFSRLKFRPEEGMEVIATGKITTFPGSSKYQIVIESLEPAGAGALMALLEDRRRRLAAEGLFDSARKRPLPFMPRVIGVVTSPTGAVIRDILHRISDRFPVHVVVWPVKVQGEGSGEEVANAIRGFNALKPGGDIARPDVLIVARGGGSLEDLWSFNDEIVVRAAAESEIPLISAVGHETDTTLIDYAADVRAPTPTGAAEMAVPVRAELEAQLSGLAARLSGSVSRQMDNRRQGVRALVRALPSLDQLLALPRRRFDEAASGLGRGLELTTLNKRRAFERSASGLRPETLLNGLKHHRQRITERMHRAETLVERRLLQGKGRVDSFDSALRSLPARLLGQLERQKERVVTAARRADTAVLHRMAQNRSGLAAHDRILQSLSYKNVLNRGYAVIRDEENRPLTRAAAIASGAAVSMEFADGRVSAITTGEGTPAPETAAAPKKKPAKPASSDPGNQGNLFEGHHHHHH", "soluble on expression in E. coli": "not soluble"}, {"sequence": "MSLVVVSDVFVSVRGRVMLNVEAMNMTESVGNYVKHRRVPVVLPDAKYTTYFVPAISGESIAHGFQEVLAEVGKKNGLKVCKLCEKGIFLKSTNENVFKESFSSDPPKDDFEFEKTVIENCIVEDVGGFLYAPRAGGNVKRTSNFYTGYMIPVRESIEGAVIEPQLHSRYALGTPFVEGGQGQMIYYVELSSAVYTFSFDLDTRYIGRTTFSYEKAGTEVGKRSERINAALEALKKFLIEFAFGAKKTRFLPVMEWDSLVVAVSDDVWTVPSPYTAGYIDNARKKKEKVNFNTKLFVYPEGGSFEEVVVEAIEEAKERAGKEGHHHHHH", "soluble on expression in E. coli": "soluble"}, {"sequence": "MSLVYLNSNFLYGDDFEPKKGTLVIEDEIIKGFTSEHHSNVLNYKGLVIPPLINSHTHIGDNSIKDIGIGKSLDELVKPPNGLKHKFLNTCSEKELVQGMSEGLYDLENNGIKAFCDFRENGLNGINSLKSAFEDSNVSIKPIILGRPTQREENLLKDEISIILDNCDGLGLSGSNEYSDQELKFICKLVNKKILSIHANEHKGSVQYSKEKYGISEIERLINLNIKPDFLIHATHSSSDDLSLLNENKIPVVVCPRANASFNVGLPDIPKMLEYNLKLGIGTDNFMANSPSIFKEMDFIYKIYHVDPKEILKMATINGAEILGLQNTGVIKEGYIPTFTFIKNGNILKTSKNIAASVVTRLENGDVDSKFLVCEGHHHHHH", "soluble on expression in E. coli": "not soluble"}, {"sequence": "MSLVYMAINAVAGTIREFSPKDIESVYRIAQTSLTEYYTQALILDLHREWPESFMVYTVAGSVVGFIVGSKYSRTEARILLFAVDERFRRMGVGSALMDAFLSLCREQNMLSVRLEVRTDNDEAIRFYKKYGFVITAMLPNYYSDSSNAYTMWRIVEGHHHHHH", "soluble on expression in E. coli": "not soluble"}, {"sequence": "MSLYNFLGKELKSPLIIGSGPLTYSAAGCKILSDAGAGAVVTKTIRKERAINPAPHMVRNTANALLNNEKWTDFEPEQWIDFEIPQMKRDGTVCIASIGHTIEESSELVEKVANAGADFIELVSYDYRDLIPMLKDAKERVNIPVIVKLPPMIDEIGDFAKKLEEAGADAITACDSVGPAFRIDIETGQPLLGGNGIGYLSGETIKPITLQRIYEIKKQVNIPIIGLGGCVSGDDALEMIMAGADFVGICSVVILKGAQVISKIHDDLKSNLNRLGYNTIENACGIVHNHMGDVNEREGHHHHHH", "soluble on expression in E. coli": "soluble"}, {"sequence": "MSLYRELMQKKNVRPYVLMARFGLEKENQRSTREGLLATTEHPTVFGNRSYHPYIQTDFSETQLELITPVANSGTEMLRFLDAIHDVARRSIPEDEMLWPLSMPPQLPTKDEEIKIAKLDQYDAVLYRRYLAKEYGKRKQMVSGIHFNFEYDQALIQQLYDEQSEVTDCKQFKTKVYMKVARNFLRYRWLITYLFGASPVSEDRYFRVYDDQPQEPVRSIRNSTYGYRNHDNVKVSYASLERYLEDIHRMVENGLLSEEKEFYAPVRLRGGKQMSDLPKTGIRYIELRNLDLNPFSRLGIVEDTVDFLHYFMLYLLWTDEKEEADEWVKTGDIFNEQVALGHPHETIKLIAEGDRIFSEMIDMLDALGIRKGKEVVGKYYQQLRNPQDTVSGKMWTIIQENSNSELGNIFGNQYQSMAFERPYQLAGFREMELSTQIFLFDAIQKGLEIEILDEQEQFLKLQHGEHIEYVKNANMTSKDNYVVPLIMENKTVTKKILSAAGFHVPGGEEFSSFIEAQEAHLRYANKAFVVKPKSTNYGLGITIFKEGASLEDFTEALRIAFKEDTAVLIEEFLPGTEYRFFVLDNDVKAIMLRVPANVTGDGKHTVEELVAAKNSDPLRGTNHRAPLELIQLNDLEKLMLKEQGLTIYSVPEKEQIVYLRENSNVSTGGDSIDMTDVIDDSYKQIAIEAVAALGAKICGIDLIIPDKDVKGTRDSLTYGIIEANFNPAMHMHVYPYAGQGRRLTMDVLKLLYPEVVQEGGSHHHHHH", "soluble on expression in E. coli": "soluble"}, {"sequence": "MSLYRHIPLVALSLFSSLFLAACGNGTPPPAAARPAIVVQPQPAGEVSQAFPGEIRARHEPELAFRIGGKVIRRLVEVGERVKKDQPLAELDPQDVRLQLEAARAQVSAAEANLQTVRAEYRRYRTLLDRNLVSHSQFENIQNSYRAGEARLKQIRAEFNVADNQAGYAVLRSPQDGVIASRRVEVGQVVAAGQTVFSLAADGEREVLIGLPEHSFERFRIGQPVSVELWSQRDRRFAGHIRELSPAADPQSRTFAARVAFDDRATPAELGQSARVYVAAAEAVPLSVPLSALTAEAGQAFVWVVEPGSSTLRRQPVRTGPYAEDRVPVLEGLKAGDWVVATGVQVLREGQQVRPIDRANRTVKLAAKEEGHHHHHH", "soluble on expression in E. coli": "soluble"}, {"sequence": "MSNAREIRSKVQSVKNTQKITGAMELVAASKMRGAIVKMNNVRPYVESANTIIKNVTAASIDYPNPYLFDRDVKRVGYIVISTDRGLCGGLNINLFKHVLKEIKNNIEDRVGVDVCVIGSKAENFFAKLKDVNIVATAHYNDKDKEGSIRAIGGAVKVMLDKFTAGEIDRLYMSSNQFVSTIKQRPRLQTLLPIQDIFSAEEIKANKEKATKGHWDYIYERDIEEVLNALFIRYIEAQVRGAILENAACEQAARMMAMKNATDNASDIIDQLKLDYNKVRQAMITQELAEICSGAAAV", "soluble on expression in E. coli": "not soluble"}, {"sequence": "MSNIVYLTVTGEQQGSISAGCGTSESTGNRWQSGHEDEIFTFSLLNNINNTGLGSQFHGITFCKLIDKSTPLFINSINNNEQLFMGFDFYRINRFGRLEKYYYIQLRGAFLSAIHHQIIENQLDTETITISYEFILCQHLIANTEFSYLALPENYNRLFLPNSKNQTNNRFKTLNSKAIGRLLAAGGVYNGNIEGFRDTAEKLGGDAIKGYDQILNEKTAGIAIATASILLTKRSNVDTYTEINSYLGKLRGQQKLLDGIDIIEIIYIKRPSKDLANLRKEFNKTVRKNFLIKLAKTSEASGRFNAEDLLRMRKGNVPLNYNVHHKLSLDDGGTNDFENLVLIENEPYHKVFTNMQSRIAKGILVGESKITPWAIPSGSIYPPMKNIMDHTK", "soluble on expression in E. coli": "not soluble"}, {"sequence": "MSNIYDWSLKADENAHSDNIINWAEGQPPSSVNDSARAMMQRVREYLADNGGSLDSTFIVNAEDKTTSIIVTTASPIEEYKNDIIIRFKAGGVNVGTTTVIVNNIEEKLLYKATNAGVTPLEGGELQRDAIYEMVYNKDVSMEDHGGWYLLNPTPLPPPKIETFPSGFIATFAMQEVPSGWLLCDGAVYERKDYPQLFKAIGDKWGKDSDTTFKVPDFRGMFLRGFDDGRGLDAGRQFADQQHDSIRSHTHIGTIEEAGEHTHKFQYYGVGWDSGDIGRRNPFYYRQSSTGVTQSAGAHTHDISLSPTGEAETRPVNTTVVYAIKS", "soluble on expression in E. coli": "not soluble"}, {"sequence": "MSNKFHCDVCSADCTNRVRVSCAICPEYDLCVPCFSQGSYTGKHRPYHDYRIIETNSYPILCPDWGADEELQLIKGAQTLGLGNWQDIADHIGSRGKEEVKEHYLKYYLESKYYPIPDITQNIHVPQDEFLEQRRHRIESFRERPLEPPRKPMASVPSCHEVQGFMPGRLEFETEFENEAEGPVKDMVFEPDDQPLDIELKFAILDIYNSRLTTRAEKKRLLFENHLMDYRKLQAIDKKRSKEAKELYNRIKPFARVMTAQDFEEFSKDILEELHCRARIQQLQEWRSNGLTTLEAGLKYERDKQARISSFEKFGASTAASLSEGNSRYRSNSAHRSNAEYSQNYSENGGRKKNMTISDIQHAPDYALLSNDEQQLCIQLKILPKPYLVLKEVMFRELLKTGGNLSKSACRELLNIDPIKANRIYDFFQSQNWM", "soluble on expression in E. coli": "soluble"}, {"sequence": "MSNNTKRVGSQTIELKSKPRIIATYSVVGPREGQGPLKEYFDKILQDDCNGCESFEKAESSLMITAIEGVIKKGNVKEEDVDYLFSGDLLNQLTSTNFVAREFKIPFFGVYGACSTMAESLSLSSMIMDGDFAKYAIASTSSHFSSAERQFRFPLEYGCQRKEYSQWTVTGSGAMLLGKSGDYPYVTHVTTGIVKDYGIKDADNMGAAMAPAAVDTIYKHFVDTGRKPEDYDVIATGDLGAVGKKLTEELLKEYGYDISKVYIDCGEKIFDNEKQGTFAGGSGCGCSAVVACGYLYRMLKEKKLKRVLLVSTGALLSSTSALQGESIPGIAHAVAIEYILEHHHHHH", "soluble on expression in E. coli": "soluble"}, {"sequence": "MSNSSAHSSFGTSNDSFSSVQSVILPPVGPFGQKKRTFEYIGVTLVVDKLKLAEWMNGIGKLFGSAELRDNVTNLHMQLVPVIDTLKKVSHLSSEKTKKEIMTLIEEYKTLVVVCENMLDRMEKSADFHSTDMLNDPVLEKQE", "soluble on expression in E. coli": "not soluble"}, {"sequence": "MSNSYEGCGDLTIFVAVALNKVIGHKNQIPWPHITHDFRFLRNGTTYIPPEVLSKNPDIQNVVIFGRKTYESIPKASLPLKNRINVILSRTVKEVPGCLVYEDLSTAIRDLRANVPHNKIFILGGSFLYKEVLDNGLCDKIYLTRLNKEYPGDTYFPDIPDTFEITAISPTFSTDFVSYDFVIYERKDCKTVFPDPPFDQLLMTGTDISVPKPKYVACPGVRIRNHEEFQYLDILADVLSHGVLKPNRTGTDAYSKFGYQMRFDLSRSFPLLTTKKVALRSIIEELLWFIKGSTNGNDLLAKNVRIWELNGRRDFLDKNGFTDREEHDLGPIYGFQWRHFGAEYLDMHADYTGKGIDQLAEIINRIKTNPNDRRLIVCSWNVSDLKKMALPPCHCFFQFYVSDNKLSCMMHQRSCDLGLGVPFNIASYSILTAMVAQVCGLGLGEFVHNLADAHIYVDHVDAVTTQIARIPHPFPRLRLNPDIRNIEDFTIDDIVVEDYVSHPPIPMAMSA", "soluble on expression in E. coli": "soluble"}, {"sequence": "MSNVISVENLGKKYLISHQGREPYTALRDVLTDGARAFYRRLFSPGTSQADAQAEEFWALKDVSFEVKQGDRIGIIGRNGAGKSTLLKILSRITEPTEGRVRIRGRVASLLEVGTGFHPELTGRENIFLNGAILGMNRAEIARKFDEIVAFAEIEKFLDTPVKRYSSGMYVRLAFAVAAHLEPEILIVDEVLAVGDAQFQNKCLGKMEDVSTKEGRTVLFVSHNMGAIDRLCTRAVLLERGRVRLADFTKPVIQMYLDKAKNAISAWSCSTSIPDFDGIFFESISIVNKDRKIAEVLPSNEPFSITLVVNATASLKGVQIAIRITNEQGIPILTTTNCDKAGKLQEISRGRYRYTVSLPASFLPPGYYTLIVASFVPGEKLFDGVEDKLGFCIDDMGSLATLMKDGRLGVVTPLMPWDEVRLLEHHHHHH", "soluble on expression in E. coli": "soluble"}, {"sequence": "MSNVKHSKLLILGSGPAGYTAAVYAARANLKPVLVTGMQQGGQLTTTTEVENWPGDAEGLTGPALMERMKEHAERFDTEIVFDHINSVDLSSRPFRLTGDSQEYTCDALIISTGASAKYLGLESEEAFKGRGVSACATCDGFFYRNQKVAVVGGGNTAVEEALYLSNIASEVHLVHRRDSFRSEKILIDRLMDKVANGNIVLHTHRTLDEVLGDEMGVTGVRLKDTQSDMTENLDVMGVFIAIGHQPNSQIFEGQLEMKNGYIVVKSGLEGNATQTSIEGVFAAGDVMDHNYRQAITSAGTGCMAALDAERYLDSQGK", "soluble on expression in E. coli": "soluble"}]}]}
